Laboratory results from paper PMC11153552, “Clock gene homologs lin-42 and kin-20 regulate circadian rhythms in C. elegans” (Scientific Reports, 2024).

Biological target: the molecule itself
Assay: crystal structure; hanging-drop vapor diffusion at 22 °C; LIN-42 41-315 at 4 mg/mL; reservoir 150 mM lithium sulfate, 1.5 M sodium potassium tartrate; molecular replacement with mouse PER2 PAS-B (PDB 3GDI)

B1: LIN-42 N-terminus residues 41-315 (domain or fragment, C. elegans)
chain: GAMDPEFNTWSSSSVEFLDDADDNRLLFTCTFTLPHGTVLSSATYADGFHEQYLTIGDNFLARLEPKGQSFILSAAAASVKQRIFARVTMPDGALRACELLCEFETDRAKITVLALRSAFSLQASHVSSNFHVFTFITKHSSTCALTHIDYASIPYLGLLPTDLIGKSLLAFVYSPDVHVVRQAHIDLHNSRGKIVKSIADLRLVAHNGSILRCQTEWSAYVNPWTRKMELVVARHRICSLPIGDSDVISSPPPGIQSNTLPPVMAKTFEDELRTIMNKPVP
notes: remnant left on the N-terminus of LIN-42 after TEV cleavage of the HisGβ1 tag; LIN-42 (PERIOD homolog), C. elegans, residues 41-315; Crystallised construct was 41-315; Density was poor for the putative N-terminal PAS domain (residues 41-146), so only the PAS-B dimer was modelled; also called protease-resistant core of the LIN-42 N-terminus; LIN-42 PAS-B dimer; source: E. coli Rosetta2 (DE3), …
binding result: binds
